For the test, the target named is tapasin-ERp57 heterodimer (ER-lumenal domain of tapasin, full-length ERp57 Cys36Ala), disulfide-linked (human) (UniProt P30101). As to the kind of experiment: ITC; Crt or Crt^Δacidic (titrant, 500 µM) into tapasin-ERp57 heterodimer (analyte, 19 µM; no PaSta1 Fab named); 25 °C; 50 mM HEPES-NaOH pH 7.4, 150 mM NaCl, 1 mM CaCl2. (ITC needs no label: the signal is the heat of the interaction.)

pKd: −log10 of the molar value.

As a reminder, the pKd is −log10 of the Kd, conventionally taken in molar units. Lower therefore signals a high Kd. Turning to “calreticulin (amino acids 18-417) (from UniProt P27797 18-417) (natural protein)”, the negative-log Kd (pKd) was 5.38.

For the origin of these results see PMC13631358.
